Experimental data taken from patent publication US20230203146A1 (Boehringer Ingelheim, published 2023).
Where two headings read alike, the source gives them in different places. Values belong to the binder of their own block, whether it stands above or below them.

Tests used:
[1] = target: T1, N-terminally FLAG-tagged mouse Ang2 (HEK293T conditioned medium) (mouse, UniProt O35608 19-496); assay: competition ELISA, FLAG-mAng2 on coated mTie2-Fc
T1 construct: may be a nucleotide entry; also called mAng2; FLAG-mAng2
T1 sequence: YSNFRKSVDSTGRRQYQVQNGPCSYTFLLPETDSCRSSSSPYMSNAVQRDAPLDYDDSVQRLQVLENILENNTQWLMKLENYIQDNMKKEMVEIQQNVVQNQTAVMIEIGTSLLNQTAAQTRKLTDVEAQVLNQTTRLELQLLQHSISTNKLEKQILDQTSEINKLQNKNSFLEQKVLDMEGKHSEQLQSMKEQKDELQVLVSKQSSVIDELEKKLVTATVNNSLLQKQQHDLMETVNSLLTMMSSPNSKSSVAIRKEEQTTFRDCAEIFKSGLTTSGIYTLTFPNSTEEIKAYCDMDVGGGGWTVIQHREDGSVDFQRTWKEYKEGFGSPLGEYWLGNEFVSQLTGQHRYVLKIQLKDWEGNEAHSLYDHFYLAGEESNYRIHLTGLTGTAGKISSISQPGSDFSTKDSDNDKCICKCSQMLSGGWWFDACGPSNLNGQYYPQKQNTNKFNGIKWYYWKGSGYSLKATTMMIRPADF
Description: (§1) In brief, 2 μg/mL of recombinant mouse Tie2-Fc or cyno Tie2-Fc is coated overnight at 4° C. in a 96-well MaxiSorp plate (Nunc, Wiesbaden, Germany). Coated wells are blocked with a 1% casein solution.

[2] = target: T2, N-terminally FLAG-tagged cynomolgus Ang2 (HEK293T conditioned medium) (cynomolgus, UniProt O15123 19-496 (human entry), limits assumed); assay: competition ELISA, FLAG-cAng2 on coated cTie2-Fc
T2 construct: may be a nucleotide entry; also called cAng2; FLAG-cAng2
T2 chain: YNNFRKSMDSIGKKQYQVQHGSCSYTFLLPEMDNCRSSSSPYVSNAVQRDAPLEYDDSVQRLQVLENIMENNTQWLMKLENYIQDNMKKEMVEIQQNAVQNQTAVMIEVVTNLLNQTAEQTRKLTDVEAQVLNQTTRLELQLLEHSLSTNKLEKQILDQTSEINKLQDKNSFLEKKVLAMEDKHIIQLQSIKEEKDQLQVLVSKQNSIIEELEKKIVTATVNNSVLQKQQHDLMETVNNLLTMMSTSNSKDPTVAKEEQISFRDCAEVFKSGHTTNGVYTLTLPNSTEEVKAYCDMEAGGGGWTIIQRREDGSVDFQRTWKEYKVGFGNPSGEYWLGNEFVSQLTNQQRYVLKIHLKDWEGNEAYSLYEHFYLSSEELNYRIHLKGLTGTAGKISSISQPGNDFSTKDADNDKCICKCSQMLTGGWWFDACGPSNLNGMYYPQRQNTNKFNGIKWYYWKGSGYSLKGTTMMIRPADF
Description: as §1

[3] = target: T1, N-terminally FLAG-tagged mouse Ang2 …; assay: competition ELISA, FLAG-mAng2 on coated mTie2-Fc; remark: listed apart in the source
Description: as §1

[4] = target: T3, recombinant cynomolgus Ang2-FLD (cynomolgus); assay: SPR (Biacore T100), binder on CM5 chip, Ang2-FLD as analyte
T3 construct: domain: FLD; also called cyno Ang2-FLD
Description: (§2) In brief, VHH and benchmark compounds are immobilized on a CM5 chip via amine coupling. […] Ang2-FLD species are allowed to associate for 2 min and to dissociate for 20 min at a flow rate of 45 μL/min. In between injections, the surfaces are regenerated with a 10 sec pulse of 25 mM NaOH and 60 sec stabilization period. Association/dissociation data are evaluated by fitting a 1:1 interaction model (Langmuir binding). The affinity constant KD is calculated from resulting association and dissociation rate constants kₐ and kd and are depicted in Table 8.

[5] = target: T4, recombinant human Ang2-FLD (human, UniProt O15123 275-496, limits assumed); assay: as above
T4 construct: domain: FLD; not used
T4 sequence (looked up): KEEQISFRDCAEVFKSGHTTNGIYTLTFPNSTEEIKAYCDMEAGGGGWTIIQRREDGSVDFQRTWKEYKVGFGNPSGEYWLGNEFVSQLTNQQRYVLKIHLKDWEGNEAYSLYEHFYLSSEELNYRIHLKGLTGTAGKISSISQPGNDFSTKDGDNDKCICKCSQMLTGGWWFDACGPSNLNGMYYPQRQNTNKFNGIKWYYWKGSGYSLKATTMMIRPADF
Description: as §2

[6] = target: T5, recombinant mouse Ang2-FLD (mouse, UniProt O35608 275-496, limits assumed); assay: as above
T5 construct: domain: FLD
T5 sequence (looked up): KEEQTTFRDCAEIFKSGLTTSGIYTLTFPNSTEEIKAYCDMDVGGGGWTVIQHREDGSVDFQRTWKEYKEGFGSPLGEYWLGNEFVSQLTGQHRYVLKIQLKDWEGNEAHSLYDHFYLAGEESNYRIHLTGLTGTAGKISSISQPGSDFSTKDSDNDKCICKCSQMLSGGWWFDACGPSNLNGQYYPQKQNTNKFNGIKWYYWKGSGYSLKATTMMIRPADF
Description: as §2

[7] = target: T6, FLAG-tagged recombinant human Ang1 (Alexis Biochemicals) (human, UniProt Q15389 20-498, limits assumed); assay: ratio of IC50 in hAng1/hTie2 ELISA to IC50 in hAng2/hTie2 ELISA
T6 construct: Bought reagent; also called hAng1; FLAG-hAng1
T6 sequence (looked up): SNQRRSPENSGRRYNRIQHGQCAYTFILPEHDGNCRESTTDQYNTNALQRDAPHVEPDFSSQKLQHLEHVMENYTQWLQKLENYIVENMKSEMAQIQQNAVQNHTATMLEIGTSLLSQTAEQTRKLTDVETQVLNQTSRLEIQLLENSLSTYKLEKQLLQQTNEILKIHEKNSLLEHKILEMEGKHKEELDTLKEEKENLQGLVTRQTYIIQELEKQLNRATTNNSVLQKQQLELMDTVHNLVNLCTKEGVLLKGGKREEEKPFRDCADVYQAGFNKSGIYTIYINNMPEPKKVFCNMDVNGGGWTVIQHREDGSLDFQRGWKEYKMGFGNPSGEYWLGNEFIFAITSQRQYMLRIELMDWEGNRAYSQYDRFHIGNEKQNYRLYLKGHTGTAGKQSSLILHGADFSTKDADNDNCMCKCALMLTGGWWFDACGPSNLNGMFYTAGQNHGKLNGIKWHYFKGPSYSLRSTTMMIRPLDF
Description: In brief, 2 μg/mL of Tie2/Fc chimera (R&D Systems, Minneapolis, Minn., USA) is coated in a 96-well MaxiSorp plate (Nunc, Wiesbaden, Germany).
In brief, 2 μg/mL of recombinant human Tie2-Fc (R&D Systems, Minneapolis, Minn., USA) is coated overnight at 4° C. in a 96-well MaxiSorp plate (Nunc, Wiesbaden, Germany). Coated wells are blocked with a 1% casein solution.

[8] = target: T7, recombinant mouse Ang2-FLD (mouse, UniProt O35608 275-496, limits assumed); assay: SPR (Biacore T100), VHH immobilized, Ang2-FLD injected
T7 construct: domain: FLD
T7 sequence (looked up): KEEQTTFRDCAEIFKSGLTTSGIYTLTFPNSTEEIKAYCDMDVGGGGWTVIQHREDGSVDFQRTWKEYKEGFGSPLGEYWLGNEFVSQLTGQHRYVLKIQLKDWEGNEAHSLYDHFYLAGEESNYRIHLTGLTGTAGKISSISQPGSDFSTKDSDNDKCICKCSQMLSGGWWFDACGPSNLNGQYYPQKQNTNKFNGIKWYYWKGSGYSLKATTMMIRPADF
Description: as §2

recombinant rat Ang2-FLD = target: T8, recombinant rat Ang2-FLD (rat, UniProt O35462 275-496, limits assumed); assay: as above
T8 construct: domain: FLD
T8 sequence (looked up): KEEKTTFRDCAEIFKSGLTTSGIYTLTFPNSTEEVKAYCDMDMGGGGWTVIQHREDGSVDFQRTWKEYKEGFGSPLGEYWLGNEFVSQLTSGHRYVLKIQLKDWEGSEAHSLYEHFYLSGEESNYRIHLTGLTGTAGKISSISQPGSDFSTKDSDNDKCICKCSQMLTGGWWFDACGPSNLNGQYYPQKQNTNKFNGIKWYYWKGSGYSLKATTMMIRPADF
Description: as §2

[9] = target: T9, recombinant human Ang2-FLD (human, UniProt O15123 275-496, limits assumed); assay: as above
T9 construct: domain: FLD
T9 sequence (looked up): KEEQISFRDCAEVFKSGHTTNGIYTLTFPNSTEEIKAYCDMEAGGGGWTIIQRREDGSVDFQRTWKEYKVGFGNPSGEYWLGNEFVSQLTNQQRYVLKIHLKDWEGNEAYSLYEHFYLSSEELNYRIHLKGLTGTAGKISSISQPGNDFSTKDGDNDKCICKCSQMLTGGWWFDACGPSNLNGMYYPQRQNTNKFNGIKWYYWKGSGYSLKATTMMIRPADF
Description: as §2

[10] = target: T10, recombinant cynomolgus Ang2-FLD (cynomolgus, UniProt A0A2K5VNX6 275-496); assay: as above
T10 construct: domain: FLD; also called cyno Ang2-FLD
T10 sequence: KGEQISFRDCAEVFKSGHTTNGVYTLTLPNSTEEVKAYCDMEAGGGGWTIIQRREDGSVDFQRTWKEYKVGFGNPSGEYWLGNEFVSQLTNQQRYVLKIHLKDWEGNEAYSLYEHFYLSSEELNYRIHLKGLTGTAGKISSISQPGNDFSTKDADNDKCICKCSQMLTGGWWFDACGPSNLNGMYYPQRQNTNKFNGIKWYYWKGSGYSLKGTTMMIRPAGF
Description: as §2

[11] = target: T11, FLAG-tagged cynomolgus Ang2 (cynomolgus, UniProt O15123 19-496 (human entry), limits assumed); assay: competition ELISA: FLAG-cAng2 binding to coated cTie2-Fc
T11 construct: N-terminally FLAG-tagged, conditioned medium of HEK293T cells; also called cAng2; FLAG-cAng2
T11 chain: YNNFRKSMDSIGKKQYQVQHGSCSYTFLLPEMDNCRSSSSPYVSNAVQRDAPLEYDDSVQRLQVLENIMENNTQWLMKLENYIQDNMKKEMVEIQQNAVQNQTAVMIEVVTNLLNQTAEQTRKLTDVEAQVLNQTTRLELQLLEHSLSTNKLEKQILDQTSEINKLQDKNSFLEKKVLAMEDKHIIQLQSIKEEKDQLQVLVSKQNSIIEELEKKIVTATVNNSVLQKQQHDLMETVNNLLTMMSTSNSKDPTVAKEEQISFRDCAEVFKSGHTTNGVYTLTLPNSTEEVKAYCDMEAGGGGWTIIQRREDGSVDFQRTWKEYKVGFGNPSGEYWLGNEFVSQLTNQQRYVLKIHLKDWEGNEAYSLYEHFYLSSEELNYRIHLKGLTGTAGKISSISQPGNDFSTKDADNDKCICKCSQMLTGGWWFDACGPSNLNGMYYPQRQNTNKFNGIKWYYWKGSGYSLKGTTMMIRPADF
Description: as §1

FLAG-tagged mouse Ang2 = target: T12, FLAG-tagged mouse Ang2 (mouse, UniProt O35608 19-496); assay: competition ELISA: FLAG-mAng2 binding to coated mTie2-Fc
T12 construct: N-terminally FLAG-tagged, conditioned medium of HEK293T cells; also called mAng2; FLAG-mAng2
T12 sequence: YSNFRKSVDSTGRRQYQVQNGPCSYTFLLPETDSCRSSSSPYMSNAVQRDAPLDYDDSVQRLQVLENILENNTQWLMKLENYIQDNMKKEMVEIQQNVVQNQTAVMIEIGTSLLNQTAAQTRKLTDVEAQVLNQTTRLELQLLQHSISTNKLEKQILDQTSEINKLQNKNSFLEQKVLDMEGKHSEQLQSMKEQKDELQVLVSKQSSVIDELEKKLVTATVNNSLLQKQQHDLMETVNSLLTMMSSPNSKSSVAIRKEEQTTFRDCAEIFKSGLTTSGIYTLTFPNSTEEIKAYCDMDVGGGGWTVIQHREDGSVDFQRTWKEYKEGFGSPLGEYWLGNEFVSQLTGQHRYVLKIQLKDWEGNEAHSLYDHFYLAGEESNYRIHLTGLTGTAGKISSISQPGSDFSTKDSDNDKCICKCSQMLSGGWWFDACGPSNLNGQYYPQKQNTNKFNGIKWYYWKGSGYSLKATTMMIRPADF
Description: as §1

IC50 [1]: 0.09 nM
IC50 [2]: 0.14 nM
IC50 [3]: 0.07 nM
Kd [4]: 0.072 nM
koff [4]: 0.00011 s⁻¹
kon [4]: 1.5e+06 M⁻¹ s⁻¹
Kd [5]: 0.097 nM
koff [5]: 0.0001 s⁻¹
kon [5]: 1e+06 M⁻¹ s⁻¹
Kd [6]: 0.18 nM
koff [6]: 0.00014 s⁻¹
kon [6]: 810000 M⁻¹ s⁻¹
hAng1/hAng2 ratio [7]: > 2.33e+06
B1: VHH 7G08 (VHH)
VHH: EVQLVESGGGLVQPGGSLRLSCAASGFALDYYAIGWFRQVPGKEREGVSCISSSDGITYYVDSVKGRFTISRDNAKNTVYLQMNSLKPEDTAVYYCATDSGGYIDYDCMGLGYDYWGQGTQVTVSS
notes: also called 007G08; not shown: C-terminal c-myc tag and His6 tag

Kd [8]: 0.17 nM
koff [8]: 7.3e-05 s⁻¹
kon [8]: 420000 M⁻¹ s⁻¹
Kd (recombinant rat Ang2-FLD): 0.29 nM
koff (recombinant rat Ang2-FLD): 5.4e-05 s⁻¹
kon (recombinant rat Ang2-FLD): 180000 M⁻¹ s⁻¹
Kd [9]: 0.064 nM
koff [9]: 4e-05 s⁻¹
kon [9]: 620000 M⁻¹ s⁻¹
Kd [10]: 0.05 nM
koff [10]: 4.9e-05 s⁻¹
kon [10]: 970000 M⁻¹ s⁻¹
IC50 [11]: 0.39 nM
IC50 (FLAG-tagged mouse Ang2): 0.2 nM
B2: VHH 00928 (VHH, not shown: small tags and cut ends)
VHH: EVQLVESGGGLVQPGGSLRLSCAASGFALDYYAIGWFRQAPGKEREGVSCISSSGGITYYADSVKGRFTISRDNSKNTVYLQMNSLRPEDTAVYYCATDSGGYIDYDCSGLGYDYWGQGTLVTVSS
